According to US11732048B2, “Anti-axl antagonistic antibodies” (BERGEN TEKNOLOGIOVERFØRING AS, priority 2016, dated 2023):
“Also recorded” adds a separate entry of the source. Blank lines part the entries; values can stand above or below the molecule they belong to.

Tests used:
[1] = tested on: Axl autophosphorylation (Tyrosine 866) in HeLa cells; assay: Phospho-Axl (Y866) ELISA on HeLa cell lysates; type: cell-based, human
Method: To assess the level to which various Axl inhibitors reduce activation of Axl, as assessed through on of inhibition of Tyrosine 866 (Y866), one of Axl's known autophosphorylation sites (others include Y779 and Y821—see Oncotarget. 2014 October; 5(20): 9546-9563; doi: 10.18632/oncotarget.2542 and references cited therein).
Lysate Preparation • 1. Seed out HeLa cells in 14 10-cm dishes • a. 3 million cells per dish • 2. Incubate cells until attached • 3. Remove medium and wash cells with PBS • 4. Serum-starve the cells in 0.5% FBS media • a. 0.5% MEM for HeLa • b. O/N, at least 24 hour starvation • 5. Incubate cells with anti-Axl antibodies for 1 hour in 6 ml fresh 0.5% MEM. • a. BGB324 (CAS=1037624-75-1, UNII=0ICW2LX8AS): 0.2 uM • b. H2L1-Evitra*: 50 ug/ml • c. H2L1-Catalent*: 50 ug/ml • d. YW327.6S2: 50 ug/ml • *same sequence, different preparation • 6. Stimulate designated plates with 0.01 ug/ml rhGas6 in 6 ml of total media per 10-cm dish. • a. rhGas6 stimulation 0.01 ug/ml • 7. Set-up: Make each in 26 ml of 0.5% MEM • #1. Starvation • #2. rhGas6 stimulation (0.01 ug/ml) • #3. rhGas6 stimulation+pre-incubation with BGB324 0.2 uM • #4. rhGas6 stimulation+pre-incubation with H2L1-Evitra: 50 ug/ml • #5. rhGas6 stimulation+pre-incubation with H2L1-Catalent: 50 ug/ml • #6. rhGas6 stimulation+pre-incubation with YW327.6S2 50 ug/ml • #7. BGB324 0.2 uM alone • #8. H2L1-Evitra: 50 ug/ml alone • #9. H2L1-Catalent: 50 ug/ml alone • #10. YW327.6S2 50 ug/ml alone • 8. Stop reaction by lysing cells on ice • 9. Wash with cold PBS • 10. Add RIPA buffer (plus phosphatase inhibitors) • a. 100 ul/dish • 11. Scrape cells from dish • 12. Incubate 5-10 min on ice • 13. Spin down 13,000 rpm 5-10 min (cold) • 14. Supernatant transferred to fresh tube • 15. Measure phospho-protein by ELISA […]
Materials • Nunc MaxiSorp 96C plates • Tris-buffered saline (TBS) pH7.6 • Tween 20 (Sigma) • Wash buffer (TBS+0.05% Tween 20) • Fetal bovine serum (FBS) (Sigma) • Monoclonal mouse anti-HsAxl antibody 5F11, 3.6 mg/ml stock (BerGenBio). • Polyclonal rabbit anti-Hs-phospho-Y866 Axl antibody pAxl-Y866-16, 1.0 mg/ml (BerGenBio). […] For HeLa cells total protein concentration 1.5 mg/ml gives a strong signal. • Microplate reader with 450 nm absorbance. Absorbance at 595 nm (if available) should be subtracted to reduce background, but the effect is marginal. […]
Develop • Prepare fresh substrate solution: • 100 μl 10 mg/ml TMB stock solution • 10 μl 30% Hydrogen peroxide solution • 9.9 ml 100 mM Sodium acetate pH6 • Optional: test a small volume of the substrate solution by adding 1 μl leftover HRP-conjugated detection antibody mixture (step 12). […] Read plate on microplate reader with absorbance of 450 nm.

[2] = tested on: Axl-dependent phosphorylation of Akt in LX2 cells; assay: Axl-dependent AKT activation (pAkt Ser473 Western blot) in LX2 cells; type: cell-based, human
Method: Activation of Axl by Gas6 or cross-linking antibodies leads to phosphorylation of Akt.
Effect of Axl blocking antibodies in blocking Axl-dependent AKT activation in LX2 cells: • Cells were seeded in 12-well/plate (2×10^5 cells/well) in DMEM/10% FBS and allowed to attach and grow for >24 h. […] Axl activation was read out via phosphorylation of Akt on serine 473 (Western blot).
Protein Analysis: • Cells were lysed in RIPA buffer (150 mM NaCl, 1.0% IGEPAL® CA-630, 0.5% sodium deoxycholate, 0.1% SDS, 50 mM Tris, pH 8.0., SIGMA-ALDRICH) supplemented with antiproteases and anti-phosphatases (PMSF, sodium orthovanadate, protease inhibitor cocktail, and sodium fluoride), adjusted to 1× Laemmli loading buffer, sonicated, and centrifuged. 20-30 μl of the samples were subjected to 8% sodium dodecyl sulphate-polyacrylamide gel electrophoresis and then transferred to nitrocellulose membranes. Membranes were blocked in 5% BSA-FAF and washed in TBS Tween buffer and then developed with Pierce-ECL western blotting Substrate. • The antibodies used were p-AKT (p-Akt1/2/3 (C-11)), 1:200 in 5% BSA/TBS-T, o/n at 4° C.; AKT (1:200), followed by anti-mouse m-IgGκ BP-HRP (1:2000, 1 h, RT); anti-AKT (Akt1/2/3 (H-136)), 1:400, 1 h, RT followed by anti-rabbit-IgG-HRP (1:20000, 1 h, RT).
Activation of Axl is often achieved by treating Axl with its ligand, Gas6. […]

[3] = target: T1, Hs-Axl-Fc (immobilized Axl-Fc) (Homo sapiens, UniProt P30530); assay: Biacore binding competition assays, two injections (Example 22); conditions: Gas6 10 μg/mL as first protein
T1 construct: Fc
Text: Sensor chip with immobilised Axl: Hs-Axl-Fc (638.2 RU), Mm-Axl-Fc (334.5 RU), Rhe-Axl-Fc (350.2 RU)
In this experiment, a first antibody was allowed to bind to saturation. A second antibody was then applied and its ability to bind was monitored.
If the second antibody recognizes the same (or overlapping) epitope as the first antibody then binding will be blocked. If the second antibody recognizes a different epitope then binding will be detected at the same level as if no first antibody was present.
The ability of Gas6 to block antibody binding was also tested, using Gas6 at 10 μg/mL in HBS-EP.
All tests were performed in parallel on Hs-Axl-Fc, Mm-Axl-Fc and Rhe-Axl-Fc surfaces.
See FIG. 1 for a list of the pairs that were tested (in this list Contr-1 is incorrectly labeled YW367 instead of YW327.6S2var). All antibodies were at 25 μg/mL in HBS-EP.
• 2. Perform Biacore experiments at 25° C. • 3. In the instrument control software choose Direct Binding, and select settings for two injections as shown below. • 4. […] Store the template & the result file, start the analysis.

[4] = target: T2, human Axl (rhAxl-Fc chimera) (Homo sapiens, UniProt P30530); assay: Biacore kinetic analysis (surface plasmon resonance) on immobilised rhAxl-Fc; type: binding
T2 construct: Soluble recombinant antigens corresponding to the extracellular domains of members of the human TAM receptor family; Fc; purchased R&D Systems 154-AL
Method: Kinetic analysis of murine MAb 10G5 interacting with rhAxl immobilized on the surface of the Biacore sensor chip. Overlay plots of sensograms for different antibody concentrations (0.3-166.7 nM for murine 10G5) are shown. The precise kinetic analysis was performed using BIA evaluation software and curve fitting according to 1:1 Langmuir binding model. […]
Affinity determination of anti-Axl antibody 10G5 was performed at 25° C. by surface plasmon resonance measurements using Biacore 3000 instrument (GE Healthcare). As a solid antigen-coated surface, a sensor chip CM5 with immobilized rhAxl-Fc chimera (R&D Systems, Cat. no. 154-AL) at density 190 RU was used.
For the kinetics measurements, different concentrations of anti-Axl antibodies (from 0.3 to 666.7 nM) in HBS-EP buffer (Biacore, Cat. no. BR-1001-88) were injected at flow rate of 30 μL/min with 3 min injection time followed by 5 min dissociation (buffer alone). After each cycle, the surface was regenerated by 30 sec injection of a regeneration solution (10 mM HCl, 1 M NaCl) at flow rate 50 μL/min.
The kinetic association (on-rate, kon) and dissociation (off-rate, koff) rates were calculated using BIAevaluation software and 1:1 Langmuir binding model. The equilibrium dissociation constant (KD) was calculated as the koff/kon ratio. The half-life (t1/2) of the formed antibody-antigen complexes was calculated as the ln 2/koff ratio. […]

[5] = tested on: A549 tumours; assay: A549 human NSCLC xenograft in mice (Examples 14, 16, 17, 18); type: in vivo, mouse; conditions: SCID mice, 30 mg/kg i.p. twice weekly, after two weeks of treatment, versus control (SYNAGIS)
Text: SCID mice were implanted subcutaneously (s.c.) into the flank with 5×10^6 A549 cells resuspended in serum-free medium/Matrigel (1:1).

[6] = agent alone, starved HeLa (antibodies 50 ug/ml, BGB324 0.2 uM, rhGas6 0.01 ug/ml)
[7] = rhGas6 0.01 ug/ml stimulation after 1 hour pre-incubation (antibodies 50 ug/ml, BGB324 0.2 uM), starved HeLa
[8] = rhAxl immobilized on Biacore sensor chip, 25° C., 1:1 Langmuir binding model

Molecule: Nc1nc(Nc2ccc3c(c2)CC[C@@H](N2CCCC2)CC3)nn1-c1cc2c(nn1)-c1ccccc1CCC2 [BGB324, 1-(6,7-dihydro-5H-benzo[6,7]cyclohepta[1,2-c]pyridazin-3-yl)-N3-((7-(S)-pyrrolidin-1-yl)-6,7,8,9-tetrahydro-5H-benzo[7]annulene-2-yl)-1H-1,2,4-triazole-3,5-diamine, reference compound]
Absorbance @ 450 nm (pAxl reading) [1, 6]: 0.039
Absorbance @ 450 nm (pAxl reading) [1, 7]: 0.045
Inhibition of 1H12-stimulated pAkt ([2]; FIG. 22B): can be inhibited; also recorded: clear response

Effect of Gas6 bound first on subsequent binding of the antibody [3]: inhibited
Effect of Gas6 bound first on subsequent binding of the antibody ([3]; listed as 1H21L1): blocks binding
KD lower than that of the chimeric antibody ([4]; comparison referring to Table 3): at least 50%
Off-rate (koff) [4, 8]: 0.000142 s⁻¹
On-rate (kon) [4, 8]: 2.07e+06 M⁻¹ s⁻¹
B1: H2L1: humanised variant of 10G5; presumably VH GH2 (SEQ ID NO: 2) with VL GL1 (SEQ ID NO: 3) (antibody, V domains shown)
VH: EVQLVESGGGLVQPGGSLRLSCAASGYSFTDFYINWVRQAPGKGLEWVARIFPGGDNTYYNEKFKGRFTLSADTSKSTAYLQMNSLRAEDTAVYYCARRGLYYAMDYWGQGTLVTVSS
VL: DIQMTQSPSSLSASVGDRVTITCRSSQSLVHSNGIPYLHWYQQKPGKAPKLLIYRVSNRFSGVPSRFSGSGSGTDFTLTISSLQPEDFATYYCSQGTHVPPTFGQGTKVEIK
modifications: hu10G5 VH(GH2); hu10G5 VL(GL1)
Absorbance @ 450 nm (pAxl reading) [1, 7]: 0.055
Inhibition of A549 tumour growth [5]: around 25%

B2: rhGas6: recombinant human Gas6, Axl ligand (protein, listed as Homo sapiens)
chain: MAPSLSPGPAALRRAPQLLLLLLAAECALAALLPAREATQFLRPRQRRAFQVFEEAKQGHLERECVEELCSREEAREVFENDPETDYFYPRYLDCINKYGSPYTKNSGFATCVQNLPDQCTPNPCDRKGTQACQDLMGNFFCLCKAGWGGRLCDKDVNECSQENGGCLQICHNKPGSFHCSCHSGFELSSDGRTCQDIDECADSEACGEARCKNLPGSYSCLCDEGFAYSSQEKACRDVDECLQGRCEQVCVNSPGSYTCHCDGRGGLKLSQDMDTCEDILPCVPFSVAKSVKSLYLGRMFSGTPVIRLRFKRLQPTRLVAEFDFRTFDPEGILLFAGGHQDSTWIVLALRAGRLELQLRYNGVGRVTSSGPVINHGMWQTISVEELARNLVIKVNRDAVMKIAVAGDLFQPERGLYHLNLTVGGIPFHEKDLVQPINPRLDGCMRSWNWLNGEDTTIQETVKVNTRMQCFSVTERGSFYPGSGFAFYSLDYMRTPLDVGTESTWEVEVVAHIRPAADTGVLFALWAPDLRAVPLSVALVDYHSTKKLKKQLVVLAVEHTALALMEIKVCDGQEHVVTVSLRDGEATLEVDGTRGQSEVSAAQLQERLAVLERHLRSPVLTFAGGLPDVPVTSAPVTAFYRGCMTLEVNRRLLDLDEAAYKHSDITAHSCPPVEPAAA
modifications: (1)..(678) Homo sapiens Gas6
Absorbance @ 450 nm (pAxl reading) [1, 6]: 0.077
Stimulation of Akt phosphorylation ([2]; FIG. 22A, Gas6 versus cross-linking 1H12): weaker
